The results in this text go back to patent US20050164945A1 (published 2005).

No end group written: not given here.

This experiment has as its target T1, recombinant endotheliase 1 (human, UniProt Q9UL52 192-423, limits assumed).
T1 construct: also called ET1; rET1
T1 sequence: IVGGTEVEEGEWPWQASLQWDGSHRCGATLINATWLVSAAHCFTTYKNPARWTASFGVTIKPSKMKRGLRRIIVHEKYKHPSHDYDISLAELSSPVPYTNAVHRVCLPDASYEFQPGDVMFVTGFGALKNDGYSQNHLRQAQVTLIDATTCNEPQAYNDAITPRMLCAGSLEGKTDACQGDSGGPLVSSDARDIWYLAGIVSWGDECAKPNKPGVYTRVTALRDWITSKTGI
In words: inhibition of ET1 activity.

The term Ki denotes the equilibrium dissociation constant of an inhibitor or competing ligand from its target.

On to AGKWHCKGYAPDCQMWGT (not fully specified (bridges); cysteine pairing not given here, synthetic peptide) [DX-1107], for which the Ki came to 500 nM.
